The Human Domainome abundance scans (Beltran et al. 2025)
± gives the uncertainty stated by the source.

B1: POU domain, class 3, transcription factor 4, residues 280 to 335; numbered along this chain, P49335 (parent)
chain: KKRTSIEVSVKGVLETHFLKCPKPAAQEISSLADSLQLEKEVVRVWFCNRRQKEKR

Variants of: B1
Experiment: abundance fitness (aPCA) (normalised: wild type 0, dead -1); higher = more abundant; growth selection in yeast, the domain comes from the species named
Details: Homo sapiens

In order of rising abundance fitness:
1. KKRTSIEVSVKGVLETHFLKCPKPAAQEISSLADSLQLEKEVVRVWKCNRRQKEKR [F47K]  -1.16 ± 0.36
2. KKRTSIEVSVKGVLETHFLKCPKPAAQEISSLADSLQLEKEVVRVWPCNRRQKEKR [F47P]  -0.996 ± 0.27
3. KKRTSIEVSVKGVLETHFLKCPKPAAQEISSLADSLQLEKEVVRVMFCNRRQKEKR [W46M]  -0.932 ± 0.26
4. KKRTSIEVSVKGVLETHFLKCPKPAAQEISSLADSLQLEKEVVRVRFCNRRQKEKR [W46R]  -0.927 ± 0.16
5. KKRTSIEVSVKGVLEPHFLKCPKPAAQEISSLADSLQLEKEVVRVWFCNRRQKEKR [T16P]  -0.839 ± 0.26
6. KKRTSIEVSVKGVLETHFLKCPKPAAQEISSLADSLQLEKEVVRVWFCNRPQKEKR [R51P]  -0.834 ± 0.25
7. KKRTSIEVSVKGVLETHFLKCPKPAAQEISSLADSLQLEKEVVRVNFCNRRQKEKR [W46N]  -0.816 ± 0.29
8. KKRTSIEVSVKGVLETHFLKCPKPAAQEISSLADSLQLEKEVVRVWFCNRGQKEKR [R51G]  -0.804 ± 0.14
9. KKRTSIEVSVKGVLETHFLKCPKPAAQEISSLAYSLQLEKEVVRVWFCNRRQKEKR [D34Y]  -0.793 ± 0.31
10. KKRTSIEVSRKGVLETHFLKCPKPAAQEISSLADSLQLEKEVVRVWFCNRRQKEKR [V10R]  -0.731 ± 0.24
11. KKRTSIEVSVKGVLETHFLKCPKPAAQSISSLADSLQLEKEVVRVWFCNRRQKEKR [E28S]  -0.692 ± 0.14
12. KKRTSIEVSVKGVLETHFLKCPKPAAQEISSLADSLQLGKEVVRVWFCNRRQKEKR [E39G]  -0.686 ± 0.16
13. KKRTSIEVSVKGVLETHFLKCPKPAAQEISSLADSLQLEKEVVRVWFCNRNQKEKR [R51N]  -0.628 ± 0.37
14. KKRTSIEVSVKGVLETHFLKCPKPAAQEISSLADSLQLEKEKVRVWFCNRRQKEKR [V42K]  -0.596 ± 0.35
15. KKRTSIEVSVKGVLETHFLKCPKPAAQEISSLADSLQLEKEVVRVWDCNRRQKEKR [F47D]  -0.565 ± 0.4
16. KKRTSIEVSVKGVLETHFLKCPKPAAQEISSLADSLQLEKEVVRVWYCNRRQKEKR [F47Y]  -0.534 ± 0.3
17. KKRTSIEVSVKGVLETHFGKCPKPAAQEISSLADSLQLEKEVVRVWFCNRRQKEKR [L19G]  -0.504 ± 0.12
18. KKRTSIEVSVKGVLETHFLKCPKPAAQEISSLADSLQLEKEIVRVWFCNRRQKEKR [V42I]  -0.49 ± 0.32
19. KKRTSIEVSVKGVLETHFLKCPKPAAQEISSLADSLQLIKEVVRVWFCNRRQKEKR [E39I]  -0.456 ± 0.25
20. KKRTSIEVSVKGVLETHFLKCPKPAAQEISSLADNLQLEKEVVRVWFCNRRQKEKR [S35N]  -0.45 ± 0.24
21. KKRTSIEVSVKGVLETHFVKCPKPAAQEISSLADSLQLEKEVVRVWFCNRRQKEKR [L19V]  -0.437 ± 0.13
22. KKRTSIEVSVKGVLETHFLKCPKPAKQEISSLADSLQLEKEVVRVWFCNRRQKEKR [A26K]  -0.415 ± 0.21
23. KKRTSIEVSVKGVLETHFLKCPKPAAQEISSLADILQLEKEVVRVWFCNRRQKEKR [S35I]  -0.373 ± 0.15
24. KKRTSIEVSVKGVLETHFLKCPKPAAQEISSLADSLQLEKEVVRVWFCNRRRKEKR [Q52R]  -0.317 ± 0.13
25. KKRTSIEVSVKGVLETHFLKCPKPAAQDISSLADSLQLEKEVVRVWFCNRRQKEKR [E28D]  -0.3 ± 0.18
26. KKRTSIEVSVKGVLECHFLKCPKPAAQEISSLADSLQLEKEVVRVWFCNRRQKEKR [T16C]  -0.283 ± 0.26
27. KKRTSIEVSVKGVLETHFLKCPKPAAQEISSLAASLQLEKEVVRVWFCNRRQKEKR [D34A]  -0.254 ± 0.13
28. KKRTSWEVSVKGVLETHFLKCPKPAAQEISSLADSLQLEKEVVRVWFCNRRQKEKR [I6W]  -0.244 ± 0.23
29. KKRTSIEVSVKGVLETHFLKCPKPAAQEISSLAQSLQLEKEVVRVWFCNRRQKEKR [D34Q]  -0.183 ± 0.21
30. KKRTSPEVSVKGVLETHFLKCPKPAAQEISSLADSLQLEKEVVRVWFCNRRQKEKR [I6P]  -0.169 ± 0.091
31. KKRTSIEVSVKGVLETHFLKCPKPAAQEISSLADSLQLNKEVVRVWFCNRRQKEKR [E39N]  -0.134 ± 0.25
32. KKRTSIEVSVKGVLETHFLKCPKPAAQNISSLADSLQLEKEVVRVWFCNRRQKEKR [E28N]  -0.123 ± 0.28
33. KKRTSIEVSVKGVLETHFLKCPKPAAQEISSLADSLQLEKEVVRVWFNNRRQKEKR [C48N]  -0.113 ± 0.22
34. KLRTSIEVSVKGVLETHFLKCPKPAAQEISSLADSLQLEKEVVRVWFCNRRQKEKR [K2L]  -0.093 ± 0.15
35. KKRTSIEVSVKGVLETHFLKCPKPAWQEISSLADSLQLEKEVVRVWFCNRRQKEKR [A26W]  -0.05 ± 0.12
36. KKRTSIEWSVKGVLETHFLKCPKPAAQEISSLADSLQLEKEVVRVWFCNRRQKEKR [V8W]  -0.045 ± 0.16
37. KKRTSIEVSVKVVLETHFLKCPKPAAQEISSLADSLQLEKEVVRVWFCNRRQKEKR [G12V]  -0.034 ± 0.28
38. KKRTSIEVSVKGVLETHFLKCPKPAAQEISSLARSLQLEKEVVRVWFCNRRQKEKR [D34R]  0.019 ± 0.12
39. KKRTSIEVSVKGVLETHFLKCPKPAAQEISSLADSLQLEKEVVRVWFRNRRQKEKR [C48R]  0.056 ± 0.12
40. KKRTSIEVSVKGVLETHFLKCPKPAAQEISSLADALQLEKEVVRVWFCNRRQKEKR [S35A]  0.071 ± 0.14
41. KKRTSIEVSVKQVLETHFLKCPKPAAQEISSLADSLQLEKEVVRVWFCNRRQKEKR [G12Q]  0.103 ± 0.29
42. KKRTSIEVSVKGVLETHFLKCPKPAAQEISSLADMLQLEKEVVRVWFCNRRQKEKR [S35M]  0.127 ± 0.17
43. KKRTSIEVSVKGVLETHFLKCPKPAAQEISSLADKLQLEKEVVRVWFCNRRQKEKR [S35K]  0.257 ± 0.15
44. KKLTSIEVSVKGVLETHFLKCPKPAAQEISSLADSLQLEKEVVRVWFCNRRQKEKR [R3L]  0.306 ± 0.12
45. KKRTSIEGSVKGVLETHFLKCPKPAAQEISSLADSLQLEKEVVRVWFCNRRQKEKR [V8G]  0.49 ± 0.11
46. KKRTSIEMSVKGVLETHFLKCPKPAAQEISSLADSLQLEKEVVRVWFCNRRQKEKR [V8M]  0.527 ± 0.22
47. KKRTSIEVSVKGVLEKHFLKCPKPAAQEISSLADSLQLEKEVVRVWFCNRRQKEKR [T16K]  0.572 ± 0.15
